Measured values as given in the nanobody polyreactivity screen of Harvey et al. (2022).

Assay: yeast display, Sf9 membrane polyspecificity reagent, FACS + sequencing; frameworks hold sequencing errors
How it was run: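 After 36–48 hours of galactose induction, yeast (Saccharomyces cerevisiae BJ5465) displaying a synthetic nanobody library were stained at 4 °C for 1 hour with 10% biotinylated, detergent-solubilized Sf9 membrane reagent. Streptavidin microbeads enriched the stained cells before FACS sorting into low and high (top ~1%) gates on anti-HA and streptavidin fluorescence. Each clone's polyreactivity label reflects its gate of origin.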

Sequence: QVQLVESGGGLVQAGGSLRLSCAASGSTFSHNAMGWSIQAPWKERELLASISSGANTYYADSVKGRFTISRDNAKNTVYLHMNSLKPEVTAVYYCAAGAHAYDHYSWFYFRMHYWGQGTQVTVSS
- polyreactivity (PSR sort gate): low polyreactivity

Sequence: QVQLVESGGGLVQAGGSLRLSCAASGFTFINYAMGWYRQAPGKERELVAAISSSSDRTYDADSVKGRFTISRDNAKNTVYLQMNSLKPEDTAVYYCAAYAQKRYYWGQGTQVNVSS
- polyreactivity (PSR sort gate): high polyreactivity

Sequence: QVQLVESGGGLVQAGGSLRLSCAASGSIFIANTMGWYRQAPGKERELVAAISSDGGSTYYADSVKGRFTISRDNAKNTVYLQMNSLKPVDTAVYYCAVDGLEIGDTGFDYWGQGTQVTVSS
- polyreactivity (PSR sort gate): low polyreactivity

Sequence: QVQLVESGGGLVQAGGSLRLSCAASGLIFSGYAMGWYRQAPGKDRELVAALTRRGSRTYYADSVKGRFTISRDNAKNTVYLQMNSLKPEDTAVYYCAADRFQGRDDYWGQGTQVTVSS
- polyreactivity (PSR sort gate): high polyreactivity

Sequence: QVQLVESGGGLVQAGGSLRLSCAASGFTFDVYAMGWYRQAPGKERELVATITWSGGSTTYADSVKGRFTISRDNAKNTVYLQMNSLKPEDTAVYYCAADRSVQVTFDYWGQGTQVTVSS
- polyreactivity (PSR sort gate): low polyreactivity

Sequence: QVQLVESGGGLVQAGGSLRLSCAASGRIFGYNAMGWYRQAPGKERELVAAIRYSGGRTYYADSVKGRFTISRDNAKNTVYLQMNSLKREDTAVYYCAATAFDKLKVWYYYWGQGTQVTVSS
- polyreactivity (PSR sort gate): high polyreactivity

Sequence: QVQLVESGGGLVQAGGSLRLSCAASGRIFGGYVMGWYRQAPGKEREFVAAISGRGTSTSYADSVKGRFTISRDNAKNTVYVQMNSLKPEDTAVYYCAARPKSDYSNGGNYWGQGTQVTVSS
- polyreactivity (PSR sort gate): high polyreactivity

Sequence: QVQLVESGGGLVQAGGSLRLICAASGSIFFSYAMGSYRQAPGKERELVAGINRSGGSTYADSVKGRFTISRDNAKNTVNLQMTSLKPEDTAVYYCAAKYYSERSRYHYWGQGTQVTVSS
- polyreactivity (PSR sort gate): low polyreactivity

Sequence: QVQLVESGGGLVQAGGSLRLSCPASGFTFGSYAMGWYRQAPGKETEFVAVITRSGRTNYADSVKGRFTISRDNAKNTVYLQMNSLKPEDTAVYYCYADDVDDEVSPDLTEMDYWGQGTQVTVSS
- polyreactivity (PSR sort gate): low polyreactivity

Sequence: QVQLVESGGGLVQAGGSLRLSCAASGSTFKRYAMGWYRQAPGKERELVAAISTRGSTYYADSVKGRFTISRDNAKNTVYFQMNSLKPEDTAVYYCIARQALVWKWYWYSPGYDYWGQGTQVTVSS
- polyreactivity (PSR sort gate): low polyreactivity

Sequence: QVQLVESGGGLVQAGGSLRLSCAASGRIFGLYAMGWYRQAPGKERELVAAIRSSGGSTYYADSVKGRFTISRDNAQNTVYLQMISQKPDDTAVYYCAADGDEDGEYWGQGTQVTVSS
- polyreactivity (PSR sort gate): low polyreactivity

Sequence: QVQLVESGGGLVQAGGSLRLSCAASGSIFIWNAMGWYRQAPGKERELVAAISFSGGSTYYADSVKGRFTISRDNAKNTVYLQMNSLKPEDTAVYYCAADSYSGRYYWWEYDYWGQGTQVTVSS
- polyreactivity (PSR sort gate): low polyreactivity

Sequence: QVQLVESGGGLVQAGGSLRLSCAASGSIFDVNGMGWYRQAPGKERELVATISSDGSTNYADSVKGRFTISRDNAKNTVYLQMNSLKPEDTAVYYCAADRHQVSVISTEVYWGQGTQVTVSS
- polyreactivity (PSR sort gate): low polyreactivity

Sequence: QVQLVESGGGLVQAGGSLRLSCAASGITFTYNAMGWYRQAPGKERELVAAITWSGGSTYYADSVKGRFTISRDNAKYTVYLQMNSLKPEDTAVYYCNAKHFAYSVAHPYLRYGYDYWGQGTQVTVSS
- polyreactivity (PSR sort gate): low polyreactivity

Sequence: QVQLVESGGGLVQAGGSLRLSCAASGSIFIGYAMGWYRQAPGKERELVAAITNGGRTYYADSVKGRFTISRDNAKNTVYLQMNSLKPEDTAVYYCAAVPSQTYRRTPYLWHDYWGQGTQVTVSS
- polyreactivity (PSR sort gate): high polyreactivity

Sequence: QDQLVESGGGLLQAGGSLRLSCAASGRTFNSYAMGWYRQAPGKERVLVAAISSSGGSTYYADSVKGRFTISRDNAKNTVYLEMNSLKPEDTAVYYCAAGLGSTSALLYGYWGQGTLVTVSS
- polyreactivity (PSR sort gate): high polyreactivity

Sequence: QVQLVESGGGLVQAGGSLRLSCAASGSTFNIYVMGSYREPPGKERELVAAITTSGRTYYADSVKGRFTISRDNAKNTVYLQMNSLKPEDNAVYYCAAATGTYGRGGYYWGQGTQVTVSS
- polyreactivity (PSR sort gate): high polyreactivity

Sequence: QVQLVESGGGLVQAGGSLRLSCAASGIIFDRYAMGWYRQAPGKERELVAAITYGGGSTYYADSVKGRFTISRDNAKNTVYLQMNSLKTEDTAVYYCAAVPRSGMYYWGQGTQVTVSS
- polyreactivity (PSR sort gate): high polyreactivity

Sequence: QVQLVESGGGLVQAGGSLRLSCAASGSTFWTNAMAWYRQSPGKERELVATITYSTGTYADSVKGRFTISRDNAKNTVYLQMNSLKPEDTAVYYCAAEVVAQMNYWGQGTQVTVSS
- polyreactivity (PSR sort gate): low polyreactivity

Sequence: QVQLVESGGGLVQAGGSLRLSCAASGRTFSHYAMGWSRQAPGKERELVAASNTRTGTTYYADSVKGRFTISRDNAKNTVNLQMNSLKPEDTAVYYCNAVPYYSYQGWILVGDYDYWGQGTQVTVSS
- polyreactivity (PSR sort gate): low polyreactivity

Sequence: QVQLVESGGGLVQAGGSLRLSCAASGFIFQYYSMGWYRQAPGKERELVATITSRGGSTYYADSVKGRFTISRDNAKNTVYLQMNSLKPEDTAFYYCNARSSSPRKYGYWGQGTQVTVSS
- polyreactivity (PSR sort gate): high polyreactivity

Sequence: QVQLVESGGGLVQAGGSLRLSCAASGSTFSRYAMGWYRQAPGKERELVAAISWRGGRTYYADSVKGRFTISRDNAKNTVYLQMNSLKPADTAVYYCNAVSYFTSQRYDYWGQGTQVTVSS
- polyreactivity (PSR sort gate): high polyreactivity

Sequence: QVQLVESGGGLVQAGGSLRLSCAASGRIFSPNAMGWYRQAPGKERELVAAISWRGRTYYADSVKGRFTISRDNAKNTVYLQMNSLKPEDTAVYYCNAPYKYVRGDYWGQGTQVTVSS
- polyreactivity (PSR sort gate): high polyreactivity

Sequence: QVQLVESGGGLVQAGGSLRLSCAASGRIFRHYGMGWYRQAPGKERELVARITRSGGSTYYADSVKGRFTISRDNAKNTVYLQMTSLKPEDTAVYYCAAFTYGESWYDYWGQGTQVTVSS
- polyreactivity (PSR sort gate): low polyreactivity

Sequence: QVQLVESGGGLVQAGGSLRLSCAASGSIFTANAMGWYRQAPGKERELVAAISRSGGRTYYADSVKGRFTISRDNAKNTVYLQMNSLKPEDTAVYYCNVGRFNTSGYDYWGQGTQVTVSS
- polyreactivity (PSR sort gate): high polyreactivity

Sequence: QVQLVESGGGLVQAGGSRRLSCAASGSIFVKYAMGWYRQAPGKERELVAAISQSGVRTYYADSVKGRFTISRDNAKNTVYLQMNSLKPEDTAVYYSAAYSGYYYWGQGTQVTVSS
- polyreactivity (PSR sort gate): high polyreactivity

Sequence: QVQLVESGGGLVQAGGSLRLSCASSGSTFRLYAMGWYRQAPGKERELVATISTSGGRTYYADSVKGRLTISRDNAKNTVYLQMNSLKPEDTAVYYCAAYRGTLLTAYDYWGQGTQVTVSS
- polyreactivity (PSR sort gate): low polyreactivity

Sequence: QVQLVESGGGLVQAGGSLRLSCAASGRIFTYNAMGWSRQAPGKERELVAAISSSGGSTYYADSVKGRFTISRDIAKYTVYLHMNSLKPEDTAVYYCAADDAGFWYYFYGRYVTFDYWGQGTQVTVSS
- polyreactivity (PSR sort gate): low polyreactivity

Sequence: QVQLEESGVGLVQAGGSLRLSCAASGRTFHIYAMGWYRQAPGKERELVADIRGRSGSTYYADSVKGRFTISRDNAKITVYLQMNSLKPEDTAVYYCAVGRYPYCSARYRFDYWGQGTQVSVSS
- polyreactivity (PSR sort gate): high polyreactivity

Sequence: QVQLVESGGGIVQAGGSLRLSCAATGFIFDQNAMAWYIQAPGKERELVAAISKRGGSTYYADSVKGRFTISRDNAKNTVYLQMNSLKREDTAVYYGATRSWGPYYYGYNHWGQGTQVTVSS
- polyreactivity (PSR sort gate): high polyreactivity

Sequence: QVQLVESGGGLVQAGGSLRLSCAASGSTFANYVMGWYRQAPGKEREVVAAISWTGGSTYYADSVKGRFTISRDNAKNTVYLQMHSLKPEDTAVYYCNAASYAWLWHPKSGLYDYWGQGTQVTVSS
- polyreactivity (PSR sort gate): low polyreactivity

Sequence: QVQLVESGGGLVQAGGSLRLSSAASGFIFAIYSMGWYRQAPGKERELVAAISRSGGRTYYADSVKGRFTISRDIAKNTVYLQMISLKPEDTAVYYCNARFQYRGVKYYYWGKGTQVTVSS
- polyreactivity (PSR sort gate): high polyreactivity
